Data as given in paper PMC4240464 (The Febs Journal, 2013).

Assays:
Assay in all cases: cell-based or functional assay
[1] = molecular target: T1, CCL3 (human, UniProt P10147 24-92)
T1 sequence: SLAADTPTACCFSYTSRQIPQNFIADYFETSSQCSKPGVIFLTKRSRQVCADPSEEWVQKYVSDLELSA

[2] = molecular target: T2, CCL8 (human, UniProt P80075 24-99)
T2 sequence: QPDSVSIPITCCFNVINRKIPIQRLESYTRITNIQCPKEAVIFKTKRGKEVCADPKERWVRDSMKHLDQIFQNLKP

[3] = molecular target: T3, CCL3L1 (human, UniProt P16619 24-93)
T3 sequence: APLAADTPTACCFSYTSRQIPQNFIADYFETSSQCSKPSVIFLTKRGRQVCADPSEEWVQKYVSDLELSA

[4] = molecular target: T4, CCL5 (wild type) (human, UniProt P13501 24-91)
T4 sequence: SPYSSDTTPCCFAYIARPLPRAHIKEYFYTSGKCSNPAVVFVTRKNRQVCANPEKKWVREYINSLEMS

[5] = molecular target: CCL11 (human, UniProt P51671 24-97)
Chain of CCL11 (P51671 24-97): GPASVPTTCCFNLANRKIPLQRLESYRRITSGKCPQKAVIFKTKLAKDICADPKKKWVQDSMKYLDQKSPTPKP

[6] = molecular target: T5, CCL26 (human, UniProt Q9Y258 24-94)
T5 sequence: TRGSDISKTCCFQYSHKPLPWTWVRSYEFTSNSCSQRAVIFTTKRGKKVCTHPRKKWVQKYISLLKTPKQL

[7] = molecular target: T6, CCL24 (human, UniProt O00175 27-119)
T6 sequence: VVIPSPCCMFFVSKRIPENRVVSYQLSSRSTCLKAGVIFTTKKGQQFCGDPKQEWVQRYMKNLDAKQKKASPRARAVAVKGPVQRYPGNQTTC

[8] = molecular target: T7, CCL22 (human, UniProt O00626 25-93)
T7 sequence: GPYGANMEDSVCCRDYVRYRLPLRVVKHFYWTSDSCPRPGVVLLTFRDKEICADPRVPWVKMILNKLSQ

[9] = molecular target: T8, CCL17 (human, UniProt Q92583 24-94)
T8 sequence: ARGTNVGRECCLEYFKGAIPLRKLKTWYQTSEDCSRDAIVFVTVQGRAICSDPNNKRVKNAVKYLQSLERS

[10] = molecular target: T9, CCL16 (human, UniProt O15467 24-120)
T9 sequence: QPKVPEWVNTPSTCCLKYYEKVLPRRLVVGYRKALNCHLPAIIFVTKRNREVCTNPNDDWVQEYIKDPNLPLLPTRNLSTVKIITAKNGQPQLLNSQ

[11] = molecular target: CCL7 (human, UniProt P80098 24-99)
Chain of CCL7 (P80098 24-99): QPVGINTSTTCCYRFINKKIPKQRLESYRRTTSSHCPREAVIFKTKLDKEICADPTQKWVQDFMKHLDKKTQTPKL

[12] = molecular target: T10, CCL15 (human, UniProt Q16663)
T10 sequence: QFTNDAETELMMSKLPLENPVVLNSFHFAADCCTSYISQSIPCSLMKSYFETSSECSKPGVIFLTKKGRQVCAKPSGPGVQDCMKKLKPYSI

[13] = molecular target: T11, CCL23 (human, UniProt P55773)
T11 sequence: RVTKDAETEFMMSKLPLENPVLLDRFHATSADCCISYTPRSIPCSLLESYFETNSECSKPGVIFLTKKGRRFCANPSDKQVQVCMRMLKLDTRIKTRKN

B1: Evasin-4 (untagged recombinant) (natural protein)
chain: EVPQMTSSSAPDLEEEDDYTAYAPLTCYFTNSTLGLLAPPNCSVLCNSTTTWFNETSPNNASCLLTVDFLTQDAILQENQPYNCSVGHCDNGTCAGPPRHAQCW
modifications: appears to be highly glycosylated (six putative N-glycosylation sites)
IC50, inhibition of chemotaxis of 300.19CCR1 cells to CCL3 (EC80 1 nM) [1]: 2 nM | IC50, inhibition of chemotaxis of L1.2/CCR5 cells to CCL3 (EC80 40 nM) [1]: 4.4 nM | IC50, inhibition of chemotaxis of L1.2/CCR3 cells to CCL8 (EC80 5 nM) [2]: 3.6 nM | IC50, inhibition of chemotaxis of eosinophils to CCL8 (EC80 10 nM) [2]: 3.1 nM | IC50, inhibition of chemotaxis of L1.2/CCR5 cells to CCL3L1 (EC80 1 nM) [3]: 3.5 nM | IC50, inhibition of chemotaxis of 300.19/CCR1 cells to CCL5 (EC80 1 nM) [4]: 2.2 nM | IC50, inhibition of chemotaxis of L1.2/CCR5 cells to CCL5 (EC80 1 nM) [4]: 4.8 nM | IC50, inhibition of chemotaxis of monocytes to CCL5 (EC80 10 nM) [4]: 1.5 nM | IC50, inhibition of chemotaxis of L1.2/CCR3 cells to CCL11 (EC80 1 nM) [5]: 14 nM | IC50, inhibition of chemotaxis of eosinophils to CCL11 (EC80 1 nM) [5]: 4.9 nM | IC50, inhibition of chemotaxis of L1.2/CCR3 cells to CCL26 (EC80 10 nM) [6]: 68 nM | IC50, inhibition of chemotaxis of eosinophils to CCL26 (EC80 50 nM) [6]: 101 nM | IC50, inhibition of chemotaxis of L1.2/CCR3 cells to CCL24 (EC80 10 nM) [7]: 95 nM | IC50, inhibition of chemotaxis of L1.2/CCR4 cells to CCL22 (EC80 1 nM) [8]: 38 nM | IC50, inhibition of chemotaxis of L1.2/CCR4 cells to CCL17 (EC80 1 nM) [9]: 69 nM | IC50, inhibition of chemotaxis of 300.19/CCR1 cells to CCL16 (EC80 250 nM) [10]: 304 nM | IC50, inhibition of chemotaxis of eosinophils to CCL7 (EC80 10 nM) [11]: 5 nM | IC50, inhibition of chemotaxis of L1.2/CCR3 cells to CCL15 (EC80 100 nM) [12]: 88 nM | IC50, inhibition of chemotaxis of 300.19/CCR1 cells to CCL23 (EC80 10 nM) [13]: 2.2 nM
